What was measured:
[1] = target: T1, α4β2 (Homo sapiens, UniProt P17787+P43681); assay: Ion channel panel (IonWorks Barracuda): α4β2; format: cell-based; settings: 100% = no change, <100% = inhibition
T1 construct: host or cells: HEK293 or CHO
Procedure, shortened: (§1)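 Peptides were tested in duplicate at final 20 μM and 200 nM, with concentration set by amino acid analysis, in HEPES-buffered saline. They were applied for at least 5 min to HEK293 or CHO cells transfected with each channel. Currents were expressed as % inhibition, 1-(Ipeptide/Icontrol)×100, or % activation, Ipeptide/Icontrol×100, against a channel-matched reference compound.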

[2] = target: T2, 5HT3a (Homo sapiens, UniProt P46098); assay: Ion channel panel (IonWorks Barracuda): 5HT3a; format: cell-based
T2 construct: host or cells: HEK293 or CHO
T2 sequence (P46098 whole entry, looked up): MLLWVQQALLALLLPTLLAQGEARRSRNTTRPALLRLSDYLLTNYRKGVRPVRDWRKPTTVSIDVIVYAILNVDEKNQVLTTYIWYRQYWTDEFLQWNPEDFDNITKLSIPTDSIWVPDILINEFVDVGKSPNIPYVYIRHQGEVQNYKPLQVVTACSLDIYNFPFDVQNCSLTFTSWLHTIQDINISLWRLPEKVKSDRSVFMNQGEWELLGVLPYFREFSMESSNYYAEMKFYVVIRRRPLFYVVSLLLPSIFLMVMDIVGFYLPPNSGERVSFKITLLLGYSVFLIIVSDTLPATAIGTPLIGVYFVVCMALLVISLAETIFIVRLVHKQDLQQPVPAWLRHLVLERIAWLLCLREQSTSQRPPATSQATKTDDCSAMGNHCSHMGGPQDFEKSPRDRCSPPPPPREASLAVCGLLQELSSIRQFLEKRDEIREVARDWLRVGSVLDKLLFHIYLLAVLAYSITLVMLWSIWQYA
Procedure, shortened: as §1

[3] = target: Nav1.5 (Homo sapiens, UniProt Q14524); assay: in vitro; settings: 100% = no change; for Activity of Nav1.5 with peptide, expressed as a percentage of the reference compound: peptide at 0.2 μM; for Activity of Nav1.5 with peptide (percentage of the reference compound): peptide at 20 μM
Procedure, shortened: as §1

[4] = target: hERG (Homo sapiens, UniProt Q12809); assay: in vitro; settings: 100% = no change, <100% = inhibition
Procedure, shortened: as §1

[5] = target: T3, Kv1.2 (Homo sapiens, UniProt P16389); assay: cell-based; format: cell-based; settings: 100% = no change, <100% = inhibition
T3 construct: host or cells: HEK293 or CHO
Procedure, shortened: as §1

[6] = target: T4, Kv1.3 (Homo sapiens, UniProt P22001); assay: cell-based; format: cell-based; settings: 100% = no change, <100% = inhibition
T4 construct: host or cells: HEK293 or CHO
Procedure, shortened: as §1

[7] = target: T5, Kv1.1 (Homo sapiens, UniProt Q09470); assay: cell-based; format: cell-based; settings: 100% = no change, <100% = inhibition
T5 construct: host or cells: HEK293 or CHO
Procedure, shortened: as §1

[8] = target: T6, Kir2.1 (Homo sapiens, UniProt P63252); assay: Ion channel panel (IonWorks Barracuda): Kir2.1; format: cell-based; settings: 100% = no change, <100% = inhibition
T6 construct: host or cells: HEK293 or CHO
Procedure, shortened: as §1

[9] = target: T7, α3β4 (Homo sapiens, UniProt P30926+P32297); assay: Ion channel panel (IonWorks Barracuda): α3β4; format: cell-based; settings: 100% = no change, <100% = inhibition
T7 construct: host or cells: HEK293 or CHO
Procedure, shortened: as §1

[10] = target: T8, TRPV1 (Homo sapiens, UniProt Q8NER1); assay: Ion channel panel (IonWorks Barracuda): TRPV1; format: cell-based; settings: 100% = no change, <100% = inhibition
T8 construct: host or cells: HEK293 or CHO
Procedure, shortened: as §1

[11] = target: T9, Cav2.2 (Homo sapiens, UniProt Q00975); assay: cell-based; settings: 100% = no change, <100% = inhibition
T9 construct: host or cells: HEK293 or CHO
Procedure, shortened: as §1

[12] = target: T10, Cav2.1 (Homo sapiens, UniProt O00555); assay: cell-based; settings: 100% = no change, <100% = inhibition
T10 construct: host or cells: HEK293 or CHO
Procedure, shortened: as §1

[13] = target: T11, Kv2.1 (Homo sapiens, UniProt Q14721); assay: cell-based; settings: 100% = no change, <100% = inhibition
T11 construct: host or cells: HEK293 or CHO
Procedure, shortened: as §1

[14] = target: T12, TRPA1 (Homo sapiens, UniProt O75762); assay: Ion channel panel (IonWorks Barracuda): TRPA1; format: cell-based; settings: 100% = no change, <100% = inhibition
T12 construct: host or cells: HEK293 or CHO
Procedure, shortened: as §1

[15] = target: T13, NR2B (Homo sapiens, UniProt Q13224); assay: Ion channel panel (IonWorks Barracuda): NR2B; format: cell-based; settings: 100% = no change, <100% = inhibition
T13 construct: host or cells: HEK293 or CHO
Procedure, shortened: as §1

[16] = target: T14, NR2A (Homo sapiens, UniProt Q12879); assay: Ion channel panel (IonWorks Barracuda): NR2A; format: cell-based; settings: 100% = no change, <100% = inhibition
T14 construct: host or cells: HEK293 or CHO
Procedure, shortened: as §1

[17] = target: T15, Nav1.7 (Homo sapiens, UniProt Q15858); assay: cell-based; format: cell-based; settings: 100% = no change; for Activity of Nav1.7 with peptide, expressed as a percentage of the reference compound: peptide at 0.2 μM; for Activity of Nav1.7 with peptide (percentage of the reference compound): peptide at 20 μM
T15 construct: host or cells: HEK293 or CHO

[18] = tested on: GABA; assay: Ion channel panel (IonWorks Barracuda): GABA; format: cell-based; settings: 100% = no change, <100% = inhibition
Procedure, shortened: as §1

[19] = first of two Nav1.5 columns (probably TP1)
[20] = second of two Nav1.5 columns (probably TP2)
[21] = first of two Nav1.7 columns (probably TP1)
[22] = second of two Nav1.7 columns (probably TP2)

T15 sequence (Q15858 whole entry): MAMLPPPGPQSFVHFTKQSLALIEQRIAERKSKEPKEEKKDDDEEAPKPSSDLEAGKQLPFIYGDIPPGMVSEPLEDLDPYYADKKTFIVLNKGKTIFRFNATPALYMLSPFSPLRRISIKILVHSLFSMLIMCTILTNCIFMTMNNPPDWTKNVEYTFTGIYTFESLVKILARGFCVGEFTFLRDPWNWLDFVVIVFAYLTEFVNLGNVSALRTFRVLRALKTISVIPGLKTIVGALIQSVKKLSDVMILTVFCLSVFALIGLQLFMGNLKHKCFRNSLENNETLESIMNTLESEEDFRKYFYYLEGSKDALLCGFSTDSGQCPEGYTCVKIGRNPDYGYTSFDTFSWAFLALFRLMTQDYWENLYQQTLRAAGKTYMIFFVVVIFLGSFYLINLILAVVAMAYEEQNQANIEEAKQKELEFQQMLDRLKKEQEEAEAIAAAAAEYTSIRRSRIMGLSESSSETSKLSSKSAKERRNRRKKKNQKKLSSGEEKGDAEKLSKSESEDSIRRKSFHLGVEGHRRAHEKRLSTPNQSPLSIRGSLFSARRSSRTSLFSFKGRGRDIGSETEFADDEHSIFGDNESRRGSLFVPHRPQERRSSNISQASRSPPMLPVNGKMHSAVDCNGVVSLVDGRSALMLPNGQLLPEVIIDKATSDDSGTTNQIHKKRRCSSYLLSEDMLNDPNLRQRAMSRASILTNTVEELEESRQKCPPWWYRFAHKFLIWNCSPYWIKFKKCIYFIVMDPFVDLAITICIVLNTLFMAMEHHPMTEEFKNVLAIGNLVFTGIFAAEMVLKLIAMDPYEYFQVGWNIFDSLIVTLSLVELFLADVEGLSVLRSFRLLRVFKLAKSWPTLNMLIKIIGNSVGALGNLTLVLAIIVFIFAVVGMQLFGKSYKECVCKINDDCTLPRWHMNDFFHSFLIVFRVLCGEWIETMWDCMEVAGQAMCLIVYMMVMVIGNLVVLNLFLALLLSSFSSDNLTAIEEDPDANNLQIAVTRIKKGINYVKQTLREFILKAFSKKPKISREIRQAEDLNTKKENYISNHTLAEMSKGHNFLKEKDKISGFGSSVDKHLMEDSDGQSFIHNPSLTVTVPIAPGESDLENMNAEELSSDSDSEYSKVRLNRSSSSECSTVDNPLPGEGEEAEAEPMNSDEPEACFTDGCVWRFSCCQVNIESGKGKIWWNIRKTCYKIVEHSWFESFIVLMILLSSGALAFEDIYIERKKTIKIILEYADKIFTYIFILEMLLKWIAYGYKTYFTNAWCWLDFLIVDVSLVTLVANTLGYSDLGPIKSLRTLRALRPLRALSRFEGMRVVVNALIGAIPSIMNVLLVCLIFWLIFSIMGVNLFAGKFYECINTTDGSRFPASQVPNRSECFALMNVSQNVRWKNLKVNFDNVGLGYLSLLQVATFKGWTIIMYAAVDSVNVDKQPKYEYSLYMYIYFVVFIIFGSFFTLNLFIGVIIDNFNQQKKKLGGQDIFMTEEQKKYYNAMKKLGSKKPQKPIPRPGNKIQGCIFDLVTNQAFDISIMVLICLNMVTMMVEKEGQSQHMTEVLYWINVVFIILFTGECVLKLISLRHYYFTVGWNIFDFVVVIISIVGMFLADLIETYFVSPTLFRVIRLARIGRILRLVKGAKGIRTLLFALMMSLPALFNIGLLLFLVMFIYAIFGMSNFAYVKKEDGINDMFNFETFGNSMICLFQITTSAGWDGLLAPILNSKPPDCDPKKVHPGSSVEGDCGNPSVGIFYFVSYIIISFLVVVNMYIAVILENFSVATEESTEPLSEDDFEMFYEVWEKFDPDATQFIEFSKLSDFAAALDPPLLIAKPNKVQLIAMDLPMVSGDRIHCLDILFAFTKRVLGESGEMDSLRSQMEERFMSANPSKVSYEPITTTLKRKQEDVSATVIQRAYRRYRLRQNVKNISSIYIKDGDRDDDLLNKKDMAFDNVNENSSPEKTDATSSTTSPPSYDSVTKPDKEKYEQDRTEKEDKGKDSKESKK
Sequence of Nav1.5 (Q14524 whole entry): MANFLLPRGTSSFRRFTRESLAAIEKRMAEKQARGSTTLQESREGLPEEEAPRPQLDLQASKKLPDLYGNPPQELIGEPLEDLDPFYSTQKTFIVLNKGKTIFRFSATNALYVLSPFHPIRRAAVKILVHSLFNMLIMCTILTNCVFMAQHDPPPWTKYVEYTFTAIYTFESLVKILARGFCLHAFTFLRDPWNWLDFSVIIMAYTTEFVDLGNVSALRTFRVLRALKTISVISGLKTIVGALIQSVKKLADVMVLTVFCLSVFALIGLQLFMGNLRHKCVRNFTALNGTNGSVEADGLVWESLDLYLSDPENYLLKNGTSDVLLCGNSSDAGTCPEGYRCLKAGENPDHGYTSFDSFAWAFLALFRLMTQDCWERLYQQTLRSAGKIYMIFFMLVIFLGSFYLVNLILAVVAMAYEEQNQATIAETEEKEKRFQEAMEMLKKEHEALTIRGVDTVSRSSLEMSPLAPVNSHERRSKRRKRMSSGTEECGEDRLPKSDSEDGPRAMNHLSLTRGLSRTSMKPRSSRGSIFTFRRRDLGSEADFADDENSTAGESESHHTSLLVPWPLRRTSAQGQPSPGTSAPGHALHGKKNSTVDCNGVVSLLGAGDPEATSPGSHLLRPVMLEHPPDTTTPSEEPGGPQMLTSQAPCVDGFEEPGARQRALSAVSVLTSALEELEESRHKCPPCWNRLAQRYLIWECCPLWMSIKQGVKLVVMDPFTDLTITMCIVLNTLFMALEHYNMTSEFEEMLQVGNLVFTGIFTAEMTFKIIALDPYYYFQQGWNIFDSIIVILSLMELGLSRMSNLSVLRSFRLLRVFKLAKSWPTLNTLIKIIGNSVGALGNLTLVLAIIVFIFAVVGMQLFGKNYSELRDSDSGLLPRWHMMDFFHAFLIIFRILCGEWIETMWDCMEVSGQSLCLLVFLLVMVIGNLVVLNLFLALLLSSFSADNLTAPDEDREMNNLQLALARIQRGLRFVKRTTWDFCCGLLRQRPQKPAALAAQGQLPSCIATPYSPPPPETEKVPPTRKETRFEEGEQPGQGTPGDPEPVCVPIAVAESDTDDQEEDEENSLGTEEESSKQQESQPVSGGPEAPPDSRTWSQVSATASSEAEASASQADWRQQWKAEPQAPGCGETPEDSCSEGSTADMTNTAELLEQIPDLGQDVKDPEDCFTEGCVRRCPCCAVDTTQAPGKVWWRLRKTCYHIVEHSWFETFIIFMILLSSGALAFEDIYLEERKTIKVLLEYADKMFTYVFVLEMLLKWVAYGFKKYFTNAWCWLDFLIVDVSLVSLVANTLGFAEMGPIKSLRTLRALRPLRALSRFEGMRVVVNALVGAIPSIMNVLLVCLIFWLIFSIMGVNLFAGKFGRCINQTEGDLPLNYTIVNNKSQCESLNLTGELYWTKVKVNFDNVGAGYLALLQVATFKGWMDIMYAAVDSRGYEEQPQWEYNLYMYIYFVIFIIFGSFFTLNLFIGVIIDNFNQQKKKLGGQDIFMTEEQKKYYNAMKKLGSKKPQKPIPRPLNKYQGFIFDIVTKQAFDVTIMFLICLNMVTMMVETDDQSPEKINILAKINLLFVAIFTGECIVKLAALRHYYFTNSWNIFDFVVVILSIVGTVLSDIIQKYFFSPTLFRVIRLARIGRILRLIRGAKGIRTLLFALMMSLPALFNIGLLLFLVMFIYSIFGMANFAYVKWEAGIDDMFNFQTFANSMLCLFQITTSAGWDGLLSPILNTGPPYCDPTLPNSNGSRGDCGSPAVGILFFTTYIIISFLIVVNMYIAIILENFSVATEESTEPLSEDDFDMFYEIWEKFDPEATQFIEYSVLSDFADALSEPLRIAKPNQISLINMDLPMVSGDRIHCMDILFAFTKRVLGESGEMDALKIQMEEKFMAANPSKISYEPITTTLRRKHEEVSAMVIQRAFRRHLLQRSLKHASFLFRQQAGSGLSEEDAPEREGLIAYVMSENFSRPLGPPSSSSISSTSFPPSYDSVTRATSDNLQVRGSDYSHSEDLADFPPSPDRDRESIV
T6 sequence (P63252 whole entry): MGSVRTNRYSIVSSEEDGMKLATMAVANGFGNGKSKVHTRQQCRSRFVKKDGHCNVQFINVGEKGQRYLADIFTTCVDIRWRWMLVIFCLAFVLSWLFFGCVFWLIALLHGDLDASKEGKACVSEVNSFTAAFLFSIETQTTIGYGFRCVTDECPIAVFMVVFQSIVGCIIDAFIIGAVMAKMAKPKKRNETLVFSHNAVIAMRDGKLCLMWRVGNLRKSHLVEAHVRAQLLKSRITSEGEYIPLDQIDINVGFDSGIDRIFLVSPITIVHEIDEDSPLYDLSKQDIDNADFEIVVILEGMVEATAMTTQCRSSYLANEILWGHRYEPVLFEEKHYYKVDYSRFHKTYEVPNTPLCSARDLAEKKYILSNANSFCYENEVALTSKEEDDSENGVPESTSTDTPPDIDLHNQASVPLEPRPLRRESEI
T3 sequence (P16389 whole entry): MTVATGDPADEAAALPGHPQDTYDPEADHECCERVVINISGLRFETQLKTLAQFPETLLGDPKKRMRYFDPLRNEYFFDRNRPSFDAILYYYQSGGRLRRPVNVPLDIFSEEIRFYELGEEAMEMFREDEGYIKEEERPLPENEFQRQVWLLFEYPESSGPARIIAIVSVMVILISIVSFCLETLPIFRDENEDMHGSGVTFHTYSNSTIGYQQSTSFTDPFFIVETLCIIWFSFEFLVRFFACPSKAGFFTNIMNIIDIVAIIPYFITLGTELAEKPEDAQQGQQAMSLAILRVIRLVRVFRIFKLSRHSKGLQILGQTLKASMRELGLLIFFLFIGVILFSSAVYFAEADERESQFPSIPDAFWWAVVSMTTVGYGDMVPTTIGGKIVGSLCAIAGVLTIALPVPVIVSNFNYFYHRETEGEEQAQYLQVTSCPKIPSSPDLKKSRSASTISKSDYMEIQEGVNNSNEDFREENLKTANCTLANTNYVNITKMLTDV

23 (GSCIGEGVPCDENDPRCCFGLVCLKPTLHGIWYKSYYCYKK) [compound 23]
Activity of a4b2 with peptide, expressed as a percentage of the reference compound ([1]; peptide at 0.2 μM): 87%
Activity of a4b2 with peptide (percentage of the reference compound) ([1]; peptide at 20 μM): 79%
Activity of 5HT3a with peptide (percentage of the reference compound) [2]: 101%
Activity of 5HT3a with peptide, expressed as a percentage of the reference compound [2]: 74%
Activity of Nav1.5 with peptide, expressed as a percentage of the reference compound [3, 19]: 85%
Activity of Nav1.5 with peptide, expressed as a percentage of the reference compound [3, 20]: 87%
Activity of Nav1.5 with peptide (percentage of the reference compound) [3, 19]: 85%
Activity of Nav1.5 with peptide (percentage of the reference compound) [3, 20]: 83%
Activity of hERG with peptide, expressed as a percentage of the reference compound ([4]; peptide at 0.2 μM): 92%
Activity of hERG with peptide (percentage of the reference compound) ([4]; peptide at 20 μM): 78%
Activity of Kv1.2 with peptide, expressed as a percentage of the reference compound ([5]; peptide at 0.2 μM): 83%
Activity of Kv1.2 with peptide (percentage of the reference compound) ([5]; peptide at 20 μM): 106%
Activity of Kv1.3 with peptide, expressed as a percentage of the reference compound ([6]; peptide at 0.2 μM): 81%
Activity of Kv1.3 with peptide (percentage of the reference compound) ([6]; peptide at 20 μM): 77%
Activity of Kv1.1 with peptide, expressed as a percentage of the reference compound ([7]; peptide at 0.2 μM): 95%
Activity of Kv1.1 with peptide (percentage of the reference compound) ([7]; peptide at 20 μM): 102%
Activity of Kir2.1 with peptide, expressed as a percentage of the reference compound ([8]; peptide at 0.2 μM): 105%
Activity of Kir2.1 with peptide (percentage of the reference compound) ([8]; peptide at 20 μM): 82%
Activity of a3b4 with peptide, expressed as a percentage of the reference compound ([9]; peptide at 0.2 μM): 94%
Activity of a3b4 with peptide (percentage of the reference compound) ([9]; peptide at 20 μM): 93%
Activity of TRPV1 with peptide, expressed as a percentage of the reference compound ([10]; peptide at 0.2 μM): 117%
Activity of TRPV1 with peptide (percentage of the reference compound) ([10]; peptide at 20 μM): 87%
Activity of Cav2.2 with peptide, expressed as a percentage of the reference compound ([11]; peptide at 0.2 μM): 110%
Activity of Cav2.2 with peptide (percentage of the reference compound) ([11]; peptide at 20 μM): 95%
Activity of Cav2.1 with peptide, expressed as a percentage of the reference compound ([12]; peptide at 0.2 μM): 95%
Activity of Cav2.1 with peptide (percentage of the reference compound) ([12]; peptide at 20 μM): 102%
Activity of Kv2.1 with peptide, expressed as a percentage of the reference compound ([13]; peptide at 0.2 μM): 93%
Activity of Kv2.1 with peptide (percentage of the reference compound) ([13]; peptide at 20 μM): 103%
Activity of TRPA1 with peptide, expressed as a percentage of the reference compound ([14]; peptide at 0.2 μM): 126%
Activity of TRPA1 with peptide (percentage of the reference compound) ([14]; peptide at 20 μM): 83%
Activity of NR2B with peptide, expressed as a percentage of the reference compound ([15]; peptide at 0.2 μM): 95%
Activity of NR2B with peptide (percentage of the reference compound) ([15]; peptide at 20 μM): 82%
Activity of NR2A with peptide, expressed as a percentage of the reference compound ([16]; peptide at 0.2 μM): 88%
Activity of NR2A with peptide (percentage of the reference compound) ([16]; peptide at 20 μM): 89%
Activity of Nav1.7 with peptide, expressed as a percentage of the reference compound [17, 21]: 89%
Activity of Nav1.7 with peptide, expressed as a percentage of the reference compound [17, 22]: 93%
Activity of Nav1.7 with peptide (percentage of the reference compound) [17, 21]: 65%
Activity of Nav1.7 with peptide (percentage of the reference compound) [17, 22]: 63%
Activity of GABA with peptide, expressed as a percentage of the reference compound ([18]; peptide at 0.2 μM): 100%
Activity of GABA with peptide (percentage of the reference compound) ([18]; peptide at 20 μM): 103%

From US20200262877A1, “ION CHANNEL-BINDING PEPTIDES AND METHODS OF USE THEREOF” (priority 2017, published 2020)
